Experimental data reported in doi:10.1101/2025.11.22.689886 (bioRxiv, 2025).

Biological target: the molecule itself
Assay: SEC

B1: transdermal peptide-recombinant type III collagen fusion protein (other, human)
chain: FEGPASRPGFPGMKGHRGFDGRNGEKGETGAPGLKGENGLPGENGAPGPMGPRGAPGERGRPGLPGAAGARGNDGARGSDGQPGPPGPPGTAGFPGSPGAKGEVGPAGSPGSNGAPGQRGEPGPQGHAGAQGPPGPPGINGSPGGKGEMGPAGIPGAPGLMGARGPPGPAGANGAPGLRGGAGEPGKNGAKGEPGPRGERGEAGIPGVPGAKGEDGKDGSPGEPGANG
- stoichiometry N: 3
